From US20250051455A1 (Hoffmann-La Roche, published 2025)
Substitutions are numbered along the chain they refer to. Each block holds one binder with its values, some of them ahead of it.

Key:
[1] = molecular target: T1, modified human HLA-G β2M MHC class I complex (HLA-G specific amino acids replaced by HLA-A consensus amino … (human)); assay: ELISA, biotinylated degrafted HLA-G on streptavidin plate (no EC50; Max. OD 0.13)
T1 construct: Counter antigen: single-chain fusion of peptide, beta-2 microglobulin and HLA-G in which 14 HLA-G unique surface positions were mutated to an HLA-A consensus; also called degrafted HLA-G; HLA-G-0007
Method: (§1) Streptavidin coated plates (Nunc, MicroCoat #11974998001) were coated with 25 μl/well biotinylated human degrafted HLA-G at a concentration of 250 ng/ml and incubated at 4° C. overnight. After washing (3×90 μl/well with PBST-buffer) 25 μl anti-HLA-G samples (1:3 dilution in OSEP buffer) or rat serum (1:600 dilution in OSEP) were added and incubated 1 h at RT. After washing (3×90 μl/well with PBST-buffer) 25 μl/well of a mixture of goat-anti-rat IgG1-POD (Bethyl #A110-106P), goat-anti-rat IgG2a-POD (Bethyl #A110-109P) and goat-anti-rat IgG2b-POD (Bethyl #A110-111P) 1:10000 in OSEP was added and incubated at RT for 1 h on shaker. After washing (6×90 μl/well with PBST-buffer) 25 μl/well TMB substrate (Roche, 11835033001) was added and incubated until OD 2-3. Measurement took place on a Tecan Safire 2 instrument at 370/492 nm.

[2] = molecular target: T2, recombinant soluble human HLA-G β2M MHC class I complex, dimer (human); assay: competition ELISA, one antibody concentration; competitor coated ILT2-Fc
T2 construct: Non-biotinylated; also called HLA-G Dimer; dimeric HLA-G
Method: (§2) The ELISA was set up by coating the Fc tagged ILT2 and ILT4 respectively to Maxisorp microtiter plates. After incubation and washing steps, the respective antibodies were added at a concentration of 100 nM. Soluble His tagged monomeric, dimeric or trimeric HLA-G was added to the wells. After incubation and washing steps, detection of bound receptor was carried out by anti-His-antibody-POD conjugates.
(§3) The above tables summarize the blocking of interaction between rec. HLA-G proteins (monomer and oligomers) to its receptors ILT2 and ILT4 by the described HLAG antibodies at a concentration of 110 nM (*HLAG-0090 was tested at a concentration of 44 nM) as assessed by ELISA. Shown are the % inhibitions of the HLA-G/receptor interaction (for ILT2 and ILT4). The less pronounced ILT4 inhibition depends on the major β2M dependent interaction of this receptor.

[3] = molecular target: T3, recombinant soluble human HLA-G β2M MHC class I complex, trimer (human); assay: as above
T3 construct: Non-biotinylated; also called HLA-G Trimer; trimeric HLA-G
Method: as §2, §3

[4] = molecular target: T4, recombinant soluble human HLA-G β2M MHC class I complex, monomer (human); assay: as above
T4 construct: His tagged; biotinylated where coated on streptavidin plates, non-biotinylated in SPR; also called HLA-G-0003; wt HLA-G (monomer)
Method: as §2, §3

[5] = molecular target: T2, recombinant soluble human HLA-G β2M MHC …; assay: ELISA, HLA-G dimer coated at random on plate
Method: (§4) The above table summarizes the binding of different rat anti-human HLA-G monoclonal antibodies, derived from wt protein IMS. Shown are the relative EC50 values [ng/ml] of the respective binding to rec. wt monomeric, dimeric and trimeric HLA-G proteins as assessed by ELISA. The ELISA was set up by coating the biotinylated wt HLA-G antigen to strepdavidin plates. After incubation and washing steps, the respective antibodies were bound in a concentration range from 10-0 μg in 1:2 dilution steps. Detection of bound antibodies was carried out by anti-Fc-antibody-POD conjugates. EC50 values were determined from the resulting binding curves at the antibody concentrations generating the half-maximal signal. In case of the non-biotinylated HLA-G dimer and trimer antigens, immobilization was carried out by random coating on assay plates.

[6] = molecular target: T3, recombinant soluble human HLA-G β2M MHC …; assay: ELISA, HLA-G trimer coated at random on plate
Method: as §4

[7] = molecular target: T1, modified human HLA-G β2M MHC class I …; assay: ELISA, biotinylated degrafted HLA-G on streptavidin plate
Method: as §1
The above table summarizes the binding of different rat anti-human HLA-G monoclonal antibodies, derived from wt protein IMS both of wt as well as OMT rats. Shown are the relative EC50 values [ng/ml] and maximal OD of the respective binding to rec. wt monomeric HLA-G protein or the socalled gegrafted HLA-G (HLA-A consensus sequence on HLA-G backbone) protein as assessed by ELISA. The ELISA was set up by coating the biotinylated wt HLA-G or consensus antigen to strepdavidin plates. After incubation and washing steps, the respective antibodies were bound in a concentration range from 10-0 μg in 1:2 dilution steps. Detection of bound antibodies was carried out by anti-Fc-antibody-POD conjugates. EC50 values were determined from the resulting binding curves at the antibody concentrations generating the half-maximal signal.

[8] = molecular target: human HLA-G expressed on cells (JEG3 natural; SKOV3 HLA-G+ and PA-TU-8902 HLA-G+ transfectants) (human); assay: cell-based or functional assay
[9] = molecular target: T2, recombinant soluble human HLA-G β2M MHC …; assay: competition ELISA, antibody 44 nM; competitor coated ILT4-Fc
Method: as §2, §3

[10] = molecular target: T3, recombinant soluble human HLA-G β2M MHC …; assay: as above
Method: as §2, §3

[11] = molecular target: T4, recombinant soluble human HLA-G β2M MHC …; assay: as above
Method: as §2, §3

[12] = molecular target: T2, recombinant soluble human HLA-G β2M MHC …; assay: competition ELISA, antibody 44 nM; competitor coated ILT2-Fc
Method: as §2, §3

[13] = molecular target: T4, recombinant soluble human HLA-G β2M MHC …; assay: as above
Method: as §2, §3

[14] = molecular target: T1, modified human HLA-G β2M MHC class I …; assay: ELISA, biotinylated degrafted HLA-G on streptavidin plate (no EC50; Max. OD 0.2)
Method: as §1

% inhibition of ILT4 binding [9]: 31%
% inhibition of ILT4 binding [10]: 47%
% inhibition of ILT4 binding [11]: 31%
Max. OD [7]: 0.2 OD
% inhibition of ILT2 binding [12]: 100%
% inhibition of ILT2 binding [13]: 92%
binding result [14]: no binding
% TNF release (restoration) by monocytes (different donor) co-cultured with JEG-3 wt cells, LPS; antibody 0.16 µg/ml [8]: 198%
% TNF release (restoration) by monocytes (different donor) co-cultured with JEG-3 wt cells, LPS; antibody 0.63 µg/ml [8]: 219%
% TNF release (restoration) by monocytes (different donor) co-cultured with JEG-3 wt cells, LPS; antibody 2.5 µg/ml [8]: 233%
% TNF release (restoration) by monocytes (different donor) co-cultured with JEG-3 wt cells, LPS; antibody 10 µg/ml [8]: 221%
B3: HLA-G-0090 (antibody, V domains shown)
VH: QVQLQQSGPGLLKPSQTLSLTCAISGDSVSSNRAAWNWIRQSPSRGLEWLGRTYYRSKWYNDYAVSVQGRITLIPDTSKNQFSLRLNSVTPEDTAVYYCASVRAVAPFDYWGQGVLVTVSS
VL: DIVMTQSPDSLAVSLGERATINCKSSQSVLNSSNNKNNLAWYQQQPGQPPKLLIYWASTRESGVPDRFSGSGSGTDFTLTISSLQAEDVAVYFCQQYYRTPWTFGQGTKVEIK
notes: Human antibody from humanized OmniRat (OMT) rats

binding result [1]: no binding
% inhibition of ILT2 binding [2]: 99%
% inhibition of ILT2 binding [3]: 100%
% inhibition of ILT2 binding [4]: 101%
EC50 [5]: 1.87 nM
EC50 [6]: 1.86 nM
Max. OD [7]: 0.13 OD
% TNF release (restoration) by monocytes (different donor) co-cultured with JEG-3 wt cells, LPS; antibody 0.16 µg/ml [8]: 14%
% TNF release (restoration) by monocytes (different donor) co-cultured with JEG-3 wt cells, LPS; antibody 0.63 µg/ml [8]: 44%
% TNF release (restoration) by monocytes (different donor) co-cultured with JEG-3 wt cells, LPS; antibody 2.5 µg/ml [8]: 67%
% TNF release (restoration) by monocytes (different donor) co-cultured with JEG-3 wt cells, LPS; antibody 10 µg/ml [8]: 74%
B4: HLA-G-0031 (antibody, V domains shown)
VH: QVKLMQSGAALVKPGTSVKMSCNASGYTFTDYWVSWVKQSHGKRLEWVGEISPNSGASNFDENFKDKATLTVDKSTSTAYMELSRLTSEDSAIYYCTRSSHGSFRWFAYWGQGTLVTVSS
VL: AIVLNQSPSSIVASQGEKVTITCRASSSVSSNHLHWYQQKPGAFPKFVIYSTSQRASGIPSRFSGSGSGTSYSFTISRVEAEDVATYYCQQGSSNPYTFGAGTKLELK
notes: Rat monoclonal antibody obtained from CD rats

Further lines, the binder ahead of its results:

B1: HLA-G-0039 (antibody, V domains shown)
VH: EVQLLESGGGLVQPGGSLRLSCAASGFTFSSYAMNWVRQAPGKGLEWVSVISGSGVSTYYADSVKGRFTISRDNSRNTLSLQMNSLRAEDTAVYYCAKDGSYNYGYGDYFDYWGQGTLVTVSS
VL: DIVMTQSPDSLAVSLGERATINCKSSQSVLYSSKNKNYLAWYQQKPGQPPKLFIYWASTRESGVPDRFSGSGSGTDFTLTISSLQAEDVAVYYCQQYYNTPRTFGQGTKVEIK
notes: as for B3
binding result [1]: no binding
% inhibition of ILT2 binding [2]: 25%
% inhibition of ILT2 binding [3]: 70%
% inhibition of ILT2 binding [4]: -450%
EC50 [5]: 4.1 nM
EC50 [6]: 5.29 nM
Max. OD [7]: 0.13 OD

B2: HLA-G-0041 (antibody, V domains shown)
VH: B1 VH with S31T, A33G, N35S, S54G, R76K, S80Y, S85R
VL: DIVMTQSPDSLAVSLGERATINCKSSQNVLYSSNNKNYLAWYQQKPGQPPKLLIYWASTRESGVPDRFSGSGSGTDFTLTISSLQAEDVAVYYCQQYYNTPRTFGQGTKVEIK
notes: as for B3
% inhibition of ILT2 binding [2]: 23%
% inhibition of ILT2 binding [3]: 67%
% inhibition of ILT2 binding [4]: -437%
EC50 [5]: 5.31 nM
EC50 [6]: 4.87 nM
Max. OD [7]: 0.15 OD
% TNF release (restoration) by monocytes (different donor) co-cultured with JEG-3 wt cells, LPS; antibody 0.16 µg/ml [8]: 44%
% TNF release (restoration) by monocytes (different donor) co-cultured with JEG-3 wt cells, LPS; antibody 0.63 µg/ml [8]: 66%
% TNF release (restoration) by monocytes (different donor) co-cultured with JEG-3 wt cells, LPS; antibody 2.5 µg/ml [8]: 59%
% TNF release (restoration) by monocytes (different donor) co-cultured with JEG-3 wt cells, LPS; antibody 10 µg/ml [8]: 40%
